# Laboratory results: the supplement of paper PMC9112550, “Optimization of the antimicrobial peptide Bac7 by deep mutational scanning” (BMC Biology, 2022)
# Test system: Escherichia coli TOP10
# Test: shrunken log2 fold change of peptide-encoding DNA abundance (4.5 h post-induction vs induction); higher = less antimicrobial activity (less host growth inhibition)
# Details: time post-induction: 4.5 h; library: site-saturation at positions 5, 18, 19, 20
# 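Also: peptides expressed intracellularly from a pBAD plasmid library in pooled LB shake-flask culture, induced with 0.3% L-arabinose, DNA abundance read by NGS, three biological replicates, DESeq2 with apeglm shrinkage.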
row,Sequence,shrunken log2 fold change
1,RRIRCRPPRLPRPRPRPYCLPRP,-0.442
2,RRIRNRPPRLPRPRPRPEVYPRP,0.0702
3,RRIRPRPPRLPRPRPRPGQIPRP,-0.0497
4,RRIRLRPPRLPRPRPRPPWNPRP,0.939
5,RRIRDRPPRLPRPRPRPVPLPRP,0.0621
6,RRIRKRPPRLPRPRPRPRFAPRP,0.614
7,RRIRHRPPRLPRPRPRPIARPRP,0.116
8,RRIRCRPPRLPRPRPRPHCIPRP,-0.468
9,RRIRYRPPRLPRPRPRPDCSPRP,-0.315
10,RRIRVRPPRLPRPRPRPCGTPRP,-0.317
11,RRIRKRPPRLPRPRPRPDKLPRP,0.367
12,RRIRYRPPRLPRPRPRPPNQPRP,-0.44
13,RRIRHRPPRLPRPRPRPTHRPRP,0.0822
14,RRIRPRPPRLPRPRPRPYRMPRP,0.0542
15,RRIRGRPPRLPRPRPRPEAMPRP,0.59
16,RRIRARPPRLPRPRPRPEGQPRP,1.2
17,RRIRNRPPRLPRPRPRPYKHPRP,-0.819
18,RRIRRRPPRLPRPRPRPCRCPRP,-0.00341
19,RRIRKRPPRLPRPRPRPHPIPRP,0.0828
20,RRIRVRPPRLPRPRPRPEYFPRP,-0.285
21,RRIRWRPPRLPRPRPRPEPHPRP,0.65
22,RRIRFRPPRLPRPRPRPMGTPRP,-0.0834

row,Sequence,shrunken log2 fold change
1,RRIRTRPPRLPRPRPRPSDGPRP,0.0381
2,RRIRRRPPRLPRPRPRPHVGPRP,0.0734
3,RRIRSRPPRLPRPRPRPKMDPRP,0.232
4,RRIRGRPPRLPRPRPRPCHWPRP,-0.175
5,RRIRIRPPRLPRPRPRPHFLPRP,-1.42
6,RRIRLRPPRLPRPRPRPMPSPRP,-0.0353
7,RRIRYRPPRLPRPRPRPTQDPRP,0.542
8,RRIRSRPPRLPRPRPRPNTHPRP,-0.413
9,RRIRDRPPRLPRPRPRPTEIPRP,0.23
10,RRIRPRPPRLPRPRPRPCFGPRP,1.01
11,RRIRCRPPRLPRPRPRPKYMPRP,-0.498
12,RRIRLRPPRLPRPRPRPPRCPRP,0.744
13,RRIRKRPPRLPRPRPRPRGKPRP,0.126
14,RRIRTRPPRLPRPRPRPLTYPRP,0.959
15,RRIRFRPPRLPRPRPRPGNYPRP,-0.401
16,RRIRNRPPRLPRPRPRPFWNPRP,-0.151
17,RRIRVRPPRLPRPRPRPFGLPRP,-0.0857
18,RRIRSRPPRLPRPRPRPEETPRP,-0.00674
19,RRIRDRPPRLPRPRPRPDKCPRP,0.089
20,RRIRKRPPRLPRPRPRPYDPPRP,0.0113
21,RRIRWRPPRLPRPRPRPGKKPRP,0.375
22,RRIRARPPRLPRPRPRPLLFPRP,0.212

row,Sequence,shrunken log2 fold change
1,RRIRERPPRLPRPRPRPQTHPRP,-0.359
2,RRIRKRPPRLPRPRPRPCGQPRP,0.0682
3,RRIRTRPPRLPRPRPRPSTLPRP,-0.853
4,RRIRYRPPRLPRPRPRPEQHPRP,-0.0567
5,RRIRFRPPRLPRPRPRPYHMPRP,-0.128
6,RRIRNRPPRLPRPRPRPMDTPRP,-0.141
7,RRIRERPPRLPRPRPRPRIRPRP,0.0747
8,RRIRGRPPRLPRPRPRPGQMPRP,0.483
9,RRIRERPPRLPRPRPRPWNFPRP,-0.0838
10,RRIRNRPPRLPRPRPRPYPGPRP,-0.123
11,RRIRIRPPRLPRPRPRPRFRPRP,0.0756
12,RRIRKRPPRLPRPRPRPMEPPRP,0.0318
13,RRIRWRPPRLPRPRPRPCQTPRP,-0.0122
14,RRIRSRPPRLPRPRPRPAVRPRP,-0.103
15,RRIRNRPPRLPRPRPRPPPEPRP,1.1
16,RRIRIRPPRLPRPRPRPSQVPRP,-0.186
17,RRIRERPPRLPRPRPRPSAWPRP,0.0177
18,RRIRKRPPRLPRPRPRPAPRPRP,1.26
19,RRIRKRPPRLPRPRPRPMFIPRP,-0.0367
20,RRIRARPPRLPRPRPRPKPFPRP,0.0753
21,RRIRVRPPRLPRPRPRPTLQPRP,0.0594
22,RRIRMRPPRLPRPRPRPKRSPRP,2.25

row,Sequence,shrunken log2 fold change
1,RRIRARPPRLPRPRPRPIAQPRP,0.459
2,RRIRCRPPRLPRPRPRPLPVPRP,-0.105
3,RRIRLRPPRLPRPRPRPNHYPRP,-0.505
4,RRIRWRPPRLPRPRPRPCQEPRP,-0.15
5,RRIRKRPPRLPRPRPRPMVVPRP,-0.0348
6,RRIRDRPPRLPRPRPRPKAVPRP,-0.00884
7,RRIRTRPPRLPRPRPRPHGMPRP,-0.157
8,RRIRFRPPRLPRPRPRPQNMPRP,-0.797
9,RRIRVRPPRLPRPRPRPYFSPRP,-0.267
10,RRIRFRPPRLPRPRPRPWVPPRP,0.0548
11,RRIRNRPPRLPRPRPRPVPRPRP,0.0283
12,RRIRQRPPRLPRPRPRPSSTPRP,-0.215
13,RRIRCRPPRLPRPRPRPICAPRP,0.107
14,RRIRCRPPRLPRPRPRPTMEPRP,-0.088
15,RRIRSRPPRLPRPRPRPGRPPRP,0.245
16,RRIRARPPRLPRPRPRPAACPRP,0.754
17,RRIRSRPPRLPRPRPRPHYNPRP,-1.04
18,RRIRMRPPRLPRPRPRPWWMPRP,0.0885
19,RRIRARPPRLPRPRPRPCDQPRP,-0.00754
20,RRIRNRPPRLPRPRPRPAGPPRP,-0.0019
21,RRIRERPPRLPRPRPRPVWLPRP,-0.0259
22,RRIRWRPPRLPRPRPRPIRHPRP,-0.252

row,Sequence,shrunken log2 fold change
1,RRIRKRPPRLPRPRPRPTKDPRP,0.522
2,RRIRGRPPRLPRPRPRPAMIPRP,0.2
3,RRIRCRPPRLPRPRPRPGTFPRP,-0.0668
4,RRIRMRPPRLPRPRPRPRFPPRP,0.573
5,RRIRDRPPRLPRPRPRPMQNPRP,0.269
6,RRIRQRPPRLPRPRPRPPTIPRP,2.14
7,RRIRVRPPRLPRPRPRPPEYPRP,-0.225
8,RRIRGRPPRLPRPRPRPVPAPRP,1
9,RRIRDRPPRLPRPRPRPDKNPRP,-0.224
10,RRIRRRPPRLPRPRPRPDDIPRP,-0.00879
11,RRIRTRPPRLPRPRPRPPSSPRP,-0.00871
12,RRIRPRPPRLPRPRPRPETSPRP,0.328
13,RRIRSRPPRLPRPRPRPACKPRP,-0.146
14,RRIRVRPPRLPRPRPRPIMDPRP,-0.151
15,RRIRSRPPRLPRPRPRPAGVPRP,0.0729
16,RRIRKRPPRLPRPRPRPGFLPRP,0.203
17,RRIRDRPPRLPRPRPRPMDPPRP,-0.0367
18,RRIRIRPPRLPRPRPRPGVKPRP,-0.279
19,RRIRWRPPRLPRPRPRPWWTPRP,-0.0199
20,RRIRFRPPRLPRPRPRPMYNPRP,-0.294
21,RRIRFRPPRLPRPRPRPGYFPRP,-0.278
